Data from the nanobody polyreactivity screen of Harvey et al. (2022).

Assay: yeast display, Sf9 membrane polyspecificity reagent, FACS + sequencing; frameworks hold sequencing errors
Outline: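 Genes from sorted yeast were amplified by colony PCR, read by MiSeq 2 × 250 sequencing and filtered on CDR length. These cells carried a synthetic nanobody library in Saccharomyces cerevisiae BJ5465 and were sorted by FACS into low and high (top ~1%) gates on anti-HA and streptavidin fluorescence. Polyreactivity is labelled according to the gate of origin.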

Which “polyreactivity (PSR sort gate)” value does the source give for “QVQLVESGGGLVQAGGSLRLSCAASGRTFDYNAMGWYRPAPGKERELVAAISRSGGSTYYADSVKGRFTISRDNAKNTVYLQMNRLKPEDTAVYYCAADNYYLFALYEYGYWGQGTQVTVSS” here?
Its value is “high polyreactivity”.

Which “polyreactivity (PSR sort gate)” value does the source give for “QVQLVESGGGLVQAGGSLRLSCAASGRTFDYNAMGWYRQAPGKEREMVAAISSSGGSTYYADSVKGRFTISRDNAKNTVYLQMNSLKPEDTAVYYCATLYPRISIYYYWGQGTQVTVSS” here?
The value was “high polyreactivity”.

For “QVQLVESGGGLVQAGGSLRLSCAASGRTFDYYAMGWFRQAPGKERELVAAISSSGGRTYYADSVKGRFTISRDNAKNTVYLQMNSLKPEDTAVYYCNAVVSRNYEYWGQGTQVTVSS”, which “polyreactivity (PSR sort gate)” value is on record?
The value was “high polyreactivity”.

Which “polyreactivity (PSR sort gate)” value does the source give for “QVQLVESGGGLVQAGGSLRLSCAASGRTFEGNAMGWSRQAPGKERELVAAISGSGGRTYYADSVKGRFTISRDNAKNTVYLQMNSLKPEDTAVYYATLYSVYNPWRFNYWGQGTQVTVSS” here?
Its value is “high polyreactivity”.

Which “polyreactivity (PSR sort gate)” value does the source give for “QVQLVESGGGLVQAGGSLRLSCAASGRTFEGNAMGWYRQSPGKERELVAAIRWRGGRTYYADSVKGRFTISRDNAKNTVYLQLNSLNPEDTAVYYCAAAGLPPPDNDYWGQGTQVTVSS” here?
Its value is “low polyreactivity”.

For “QVQLVESGGGLVQAGGSLRLSCAASGRTFEIYAIGWYSKAPGKERELVAAISSGGSTYYADSVKGRFTISRDNAKNTVYLQMNSLKPEDTAVYYCAVRWYDQVSRRGIGYYWGQGTQVTVSS”, which “polyreactivity (PSR sort gate)” value is on record?
The value was “low polyreactivity”.

Which “polyreactivity (PSR sort gate)” value does the source give for “QVQLVESGGGLVQAGGSLRLSCAASGRTFEKYVMGWYRQAPGKERELVASISKRGGSTYYADSVKGRFTISRDNAKNTVYLQMNSLKPEDTAVYYCNKDSRASPYGYWGQGTQVTVSS” here?
The value was “high polyreactivity”.

With “QVQLVESGGGLVQAGGSLRLSCAASGRTFEPNAMGWYRQAPGKEREFVAAISWDGGDTYYADSVKGRFTISRDNAKNTVYLQMNSLKPEDTAVYYCAKSTLYSVEYDYWGQGTQVTVSS” as the sequence, how does the “polyreactivity (PSR sort gate)” value read?
The value was “low polyreactivity”.

Which “polyreactivity (PSR sort gate)” value does the source give for “QVQLVESGGGLVQAGGSLRLSCAASGRTFEQYAMGWSRQAPGKERELVAAISGSGGSTFYADSVKGRFTISRDNAKNTVYLQMNSLKPEDTAVYYCNAPGDGYLYDHTYDYWGQGTQVTVSS” here?
Its value is “low polyreactivity”.

Which “polyreactivity (PSR sort gate)” value does the source give for “QVQLVESGGGLVQAGGSLRLSCAASGRTFERYALGWYRQAPGKERELVAAIDFSGGSTSYADSVKGRFTISRDNAKNTVYLQMNSLKPEDTAVYYCAARETAHGGKEDDYWGQGTQVTVSS” here?
Its value is “low polyreactivity”.

Which “polyreactivity (PSR sort gate)” value does the source give for “QVQLVESGGGLVQAGGSLRLSCAASGRTFERYAMGWYRQAPGKERELVATITRRGGSTYYADSVKGRFTISRDNAKNTVYLQMNSLKPEDTAVYYCNADNQAYRIYARGYWGQGTQVTVSS” here?
Its value is “high polyreactivity”.

For “QVQLVESGGGLVQAGGSLRLSCAASGRTFESNAMGWYRQAPGKERELVAAISYGGGTTHYADSVKGRFTISRDNAKNTVYLQMNSLKPEDTAVYYCAADPEHQWESVTIGEYDYWGQGTQVTVSS”, which “polyreactivity (PSR sort gate)” value is on record?
The value was “low polyreactivity”.

For “QVQLVESGGGLVQAGGSLRLSCAASGRTFESNAMGWYRQAPGKERELVAGITSGGITNYADSVKGRFTISRDNAKNTVYLQMISLKPEDTAVYYCEFYYWGQGTQVTVSS”, which “polyreactivity (PSR sort gate)” value is on record?
Its value is “low polyreactivity”.

For “QVQLVESGGGLVQAGGSLRLSCAASGRTFESNAMGWYRQAPGKERELVAGITSGGITNYADSVKGRFTISRDNAKNTVYLQMNSLKPEDTAVYYCEFYYWGQGTQVTVSS”, which “polyreactivity (PSR sort gate)” value is on record?
Its value is “low polyreactivity”.

Which “polyreactivity (PSR sort gate)” value does the source give for “QVQLVESGGGLVQAGGSLRLSCAASGRTFESNAMGWYRQAPGKERELVASITDGGSTNYADSVKGRFTISRDNAKNTVYLQMNSLKPEDSAVYYCNVTKRGSLWSVPDQTYDYWGQGTQVTVSS” here?
Its value is “low polyreactivity”.

For “QVQLVESGGGLVQAGGSLRLSCAASGRTFESYAMGWYRQAPGTERELVAAITWSGGDTYYADSVKGRFTISRDNAKNTVYLQMNSLKPEETAVYYCAKEQGLYSVSPYDYWGQGTQVTVSS”, which “polyreactivity (PSR sort gate)” value is on record?
Its value is “low polyreactivity”.

For “QVQLVESGGGLVQAGGSLRLSCAASGRTFEYYAMGWYRQAPGKERDLVAAISTSGGSTYYADSVKGRFTISRDNAKNTVYLQMNSLKPEDTAVYYCNKVQSTANDYWGQGTQVTVSS”, which “polyreactivity (PSR sort gate)” value is on record?
The value was “low polyreactivity”.

For “QVQLVESGGGLVQAGGSLRLSCAASGRTFFGNAMGWYRQAPGKERELVAVISQGGGSTYYADSVKGRFTISRDNAKNTVYLQMNSLKPEDTAVYYCAKRYPHVGSGQLGGTYNYWGQGTQVTVSS”, which “polyreactivity (PSR sort gate)” value is on record?
Its value is “low polyreactivity”.

Which “polyreactivity (PSR sort gate)” value does the source give for “QVQLVESGGGLVQAGGSLRLSCAASGRTFFGYAMGWYIQAPGKERELVAAITWNGGRTYYADSVRGRFTISRDNAKNTVYLQMNSLKPEDTAVYYCAARVGDGVRRYNYWGQGTQVTVSS” here?
The value was “high polyreactivity”.

With “QVQLVESGGGLVQAGGSLRLSCAASGRTFFGYAMGWYRQAPGKERELVAAISGGGRTNYADSVKGRFTISRDNAKNTVYLQMNSLKPEDTAVYYCAARLVKYFRPYDYWGQGTQVTVSS” as the sequence, how does the “polyreactivity (PSR sort gate)” value read?
Its value is “high polyreactivity”.

With “QVQLVESGGGLVQAGGSLRLSCAASGRTFFGYAMGWYRQAPGKERELVAAISSGGSTYYADSVKGRFTISRDNAKNTVYLQMYSLKPEDTAVYYCATAFYYYTSGTTLLFRYDYWGQGTQVTVSS” as the sequence, how does the “polyreactivity (PSR sort gate)” value read?
The value was “low polyreactivity”.

For “QVQLVESGGGLVQAGGSLRLSCAASGRTFFKIAMGWYRQAPGKERELVASISSRSGTTYYADSVKGRFTISRDNAKNTVYLQMNSLKPEDTAVYYCAASRNRYSYGYWGQGTQVTVSS”, which “polyreactivity (PSR sort gate)” value is on record?
The value was “high polyreactivity”.

For “QVQLVESGGGLVQAGGSLRLSCAASGRTFFKNAMGWYRQAPGKERELVASISSRSGTTYYADSVKGRFTISRDNAKNTVYLQMNSLKPEDTAVYYCAADIYWWRGSTHGMDYWGQGTQVTVSS”, which “polyreactivity (PSR sort gate)” value is on record?
Its value is “high polyreactivity”.

Which “polyreactivity (PSR sort gate)” value does the source give for “QVQLVESGGGLVQAGGSLRLSCAASGRTFFKYAMGWYRQAPGKERELVAAITGRGGSTYADSVKGRFTISRDNAKNTVYLQMNSLKPEDTAVYYCAKVYQRGAQYYYYKYDYWGQGTQVTVSS” here?
The value was “high polyreactivity”.

With “QVQLVESGGGLVQAGGSLRLSCAASGRTFFKYAMGWYRQEPGKERELVASISRTGGGSTYYADSVKGRFTISRDNAKNTVYLQMNSLQPEDTAVYYCNKYTYRGRTGEFNYWGQGTQVNVSS” as the sequence, how does the “polyreactivity (PSR sort gate)” value read?
Its value is “high polyreactivity”.

Which “polyreactivity (PSR sort gate)” value does the source give for “QVQLVESGGGLVQAGGSLRLSCAASGRTFFLYAMGWYRQAPGKEREFVATISYGGGSTYYADSVKGRFTISRDNAKNTVYLQMNSLKPDDTAVYYCNALNTSQYAEGTSDYDGNMGYWGQGTQVTVSS” here?
The value was “low polyreactivity”.

Which “polyreactivity (PSR sort gate)” value does the source give for “QVQLVESGGGLVQAGGSLRLSCAASGRTFFLYTIGWYRQAPGKEREFVAAITTIGGSTYYADSVKGRFTISRDNAKNTVSLQMHSLKPEDTAVYYCNARVGPELHDYWGQGTQVTVSS” here?
The value was “low polyreactivity”.

Which “polyreactivity (PSR sort gate)” value does the source give for “QVQLVESGGGLVQAGGSLRLSCAASGRTFFNYAMGWYRQAPGKERELVAAISFSDGSTYYADSVKGRFTISRDNAKNTVYLQMNSLKPEDTADYYCAAQPGRRAGRSGFDYWGQGTQVTVSS” here?
Its value is “high polyreactivity”.

With “QVQLVESGGGLVQAGGSLRLSCAASGRTFFPNAMGWYRQAPGKERELVAAISSGGGGTYYADSVKGRFTISRDNAKNTVYLQMISLKPEDTAVYYCAARNSKVEEEGNYWGQGTQVTVSS” as the sequence, how does the “polyreactivity (PSR sort gate)” value read?
The value was “low polyreactivity”.

With “QVQLVESGGGLVQAGGSLRLSCAASGRTFFPYAMGWYRQAPGKEREFVAAITKTDDSTYYADSVKGRFTISRDNAKNTVYLQMNSLKPEDTAVYYCAADTSRSVSVFIVWYWLGYWGQGTQVTVSS” as the sequence, how does the “polyreactivity (PSR sort gate)” value read?
The value was “low polyreactivity”.

With “QVQLVESGGGLVQAGGSLRLSCAASGRTFFPYAMGWYRQAPGKEREFVAAITKTDDTTYYADSVKGRFTISRDNAKNTVYLQMNSLKPEDTAVYYCNAGDTQIRFYYWGQGTQVNVSS” as the sequence, how does the “polyreactivity (PSR sort gate)” value read?
Its value is “low polyreactivity”.

Which “polyreactivity (PSR sort gate)” value does the source give for “QVQLVESGGGLVQAGGSLRLSCAASGRTFFQYAMGWYRQAPGKERELVAAIRWSDSTYYADSVKGRFTISRDNAKNTVYLQMNSLKPEDTAVYYCAAPRVSQYSTKKYDYWGQGTQVTVSS” here?
The value was “low polyreactivity”.
